Measured values published in PMC5600425.
Like-named read-outs stand apart in the source and are kept apart here.

Key:
[1] = molecular target: T1, AgrA DBD (LytTR domain) (Staphylococcus aureus, UniProt Q5HEG2 138-238); test: X-ray crystallography
T1 sequence: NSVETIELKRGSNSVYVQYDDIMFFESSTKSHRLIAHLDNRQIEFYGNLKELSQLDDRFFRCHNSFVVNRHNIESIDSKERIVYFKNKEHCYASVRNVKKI

[2] = molecular target: T1, AgrA DBD (LytTR domain); test: X-ray crystallography; remark: listed apart in the source
[3] = molecular target: T2, AgrA (Staphylococcus aureus COL, UniProt Q5HEG2 1-238); test: competition
T2 sequence: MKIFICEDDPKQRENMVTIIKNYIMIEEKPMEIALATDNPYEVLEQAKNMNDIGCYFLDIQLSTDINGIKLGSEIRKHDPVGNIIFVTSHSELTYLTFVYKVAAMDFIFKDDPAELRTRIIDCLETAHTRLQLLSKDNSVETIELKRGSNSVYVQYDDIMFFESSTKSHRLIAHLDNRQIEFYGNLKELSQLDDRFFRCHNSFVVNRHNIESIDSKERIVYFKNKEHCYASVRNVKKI

[4] = molecular target: T1, AgrA DBD (LytTR domain); test: X-ray crystallography; remark: listed apart in the source
[5] = molecular target: T3, AgrA~P (Staphylococcus aureus COL, UniProt Q5HEG2 1-238); test: competition
T3 sequence: T2 sequence

[6] = molecular target: T3, AgrA~P; test: SPR
[7] = molecular target: T2, AgrA; test: SPR
[8] = molecular target: T1, AgrA DBD (LytTR domain); test: X-ray crystallography; remark: listed apart in the source

B1: P2_S2 (dsDNA)
DNA 1: TTTAACAGTTAAGTAT
DNA 2: AATACTTAACTGTTAA
- binding result [1]: binds

B2: P3_S2 (dsDNA)
DNA 1: ATTTACAGTTAAGAAT
DNA 2: AATTCTTAACTGTAAA
- binding result [2]: binds

B3: P1 promoter (SPR) (dsDNA)
DNA 1: TCGAAATACCCGATGAAGTAAGTAGCATTAACTT
DNA 2: AAGTTAATGCTACTTACTTCATCGGGTATTTCGA
- binding result [3]: binds

B4: P3_S1 (dsDNA)
DNA 1: TCGACTAGTTAAGAAA
DNA 2: ATTTCTTAACTAGTCG
- binding result [4]: binds

B5: P3 promoter (SPR) (dsDNA)
DNA 1: TTCTTAACTAGTCGTTTTTTATTCTTAACTGTAA
DNA 2: TTACAGTTAAGAATAAAAAACGACTAGTTAAGAA
- binding result [5]: binds
- binding result [3]: binds

B6: P2-P3 intergenic region (negative control) (dsDNA)
DNA 1: TTTTTATGTTAAAATATTAAATACAAATTAC
DNA 2: GTAATTTGTATTTAATATTTTAACATAAAAA
- binding result [6]: no binding
- binding result [7]: no binding

B7: P2_S1 (dsDNA)
DNA 1: TCCTACAGTTAGGCAA
DNA 2: ATTGCCTAACTGTAGG
- binding result [8]: binds
